The text below walks through data of PMC12796366.

The target of one test is EYFP (Aequorea victoria). The test can be described thus: AUC; sedimentation velocity, 0.5 mg/mL of the isolated fluorescent protein, 25 mM phosphate buffer pH 6.2 or 7.4, 150 mM NaCl, 1% glycerol, 1 mM MgCl2, 0.5 mM beta-mercaptoethanol (legend also: 50 mM KCl), 42,000 rpm, 20 °C, interference detection, c(s) fit with Sedfit.
A further test addresses EGFP (Aequorea victoria). The test is described as above.

EYFP: the stoichiometry N (in general, the number of molecules, sites or subunits per partner or assembly) with EYFP (Aequorea victoria) is 2.
As to EGFP, in the test with EGFP (Aequorea victoria), the stoichiometry N came out at 2.
